Assay results taken from patent US20020127673A1 (REGENTS OF THE UNIVERSITY OF MICHIGAN, published 2002).

Tests used:
HA-tagged wild-type Nod2 = molecular target: T1, HA-tagged wild-type Nod2 (human, UniProt Q9HC29 1-1040); assay: co-immunoprecipitation from co-transfected HEK293T cells
T1 construct: Expressed by transfection in HEK293T cells and tested in cell lysates; also called wt Nod2; pcDNA3-Nod2-HA; not shown: HA tag
Text: The CARD motif functions as an effector domain that mediates specific homophilic interaction with downstream CARD-containing molecules (Hofmann et al., Trends Biochem. Sci. 22: 155-156 [1997]).

[1] = molecular target: the molecule itself; assay: not described ('our observations')

Row | binding result (HA-tagged wild-type Nod2) | Binder | binding result [1]
1 | no binding | procaspase-9 (enzyme, UniProt P55211 1-416, looked up, Construct and tag not described) MDEADRRLLRRCRLRLVEELQVDQLWDALLSRELFRPHMIEDIQRAGSGSRRDQARQLIIDLETRGSQALPLFISCLEDTGQDMLASFLRTNRQAAKLSKPTLENLTPVVLRPEIRKPEVLRPETPRPVDIGSGGFGDVGALESLRGNADLAYILSMEPCGHCLIINNVNFCRESGLRTRTGSNIDCEKLRRRFSSLHFMVEVKGDLTAKKMVLALLELAQQDHGALDCCVVVILSHGCQASHLQFPGAVYGTDGCPVSVEKIVNIFNGTSCPSLGGKPKLFFIQACGGEQKDHGFEVASTSPEDESPGSNPEPDATPFQEGLRTFDQLDAISSLPTPSDIFVSYSTFPGFVSWRDPKSGSWYVETLDDIFEQWAHSEDLQSLLLRVANAVSVKGIYKQMPGCFNFLRKKLFFKTS | –
2 | no binding | Bcl-10 (other, UniProt O95999 1-233, looked up, Construct and tag not described) MEPTAPSLTEEDLTEVKKDALENLRVYLCEKIIAERHFDHLRAKKILSREDTEEISCRTSSRKRAGKLLDYLQENPKGLDTLVESIRREKTQNFLIQKITDEVLKLRNIKLEHLKGLKCSSCEPFPDGATNNLSRSNSDESNFSEKLRASTVMYHPEGESSTTPFFSTNSSLNLPVLEVGRTENTIFSSTTLPRPGDPGAPPLPPDLQLEEEGTCANSSEMFLPLRSRTVSRQ | –
3 | no binding | caspase-4 (enzyme, UniProt P49662 1-377, looked up, Construct and tag not described) MAEGNHRKKPLKVLESLGKDFLTGVLDNLVEQNVLNWKEEEKKKYYDAKTEDKVRVMADSMQEKQRMAGQMLLQTFFNIDQISPNKKAHPNMEAGPPESGESTDALKLCPHEEFLRLCKERAEEIYPIKERNNRTRLALIICNTEFDHLPPRNGADFDITGMKELLEGLDYSVDVEENLTARDMESALRAFATRPEHKSSDSTFLVLMSHGILEGICGTVHDEKKPDVLLYDTIFQIFNNRNCLSLKDKPKVIIVQACRGANRGELWVRDSPASLEVASSQSSENLEEDAVYKTHVEKDFIAFCSSTPHNVSWRDSTMGSIFITQLITCFQKYSWCCHLEEVFRKVQQSFETPRAKAQMPTIERLSMTRYFYLFPGN | –
4 | – | Nod2 lacking the LRRs (Nod2 1-744) (other, also called Nod2ΔLRR) MGEEGGSASHDEEERASVLLGHSPGCEMCSQEAFQAQRSQLVELLVSGSLEGFESVLDWLLSWEVLSWEDYEGFHLLGQPLSHLARRLLDTVWNKGTWACQKLIAAAQEAQADSQSPKLHGCWDPHSLHPARDLQSHRPAIVRRLHSHVENMLDLAWERGFVSQYECDEIRLPIFTPSQRARRLLDLATVKANGLAAFLLQHVQELPVPLALPLEAATCKKYMAKLRTTVSAQSRFLSTYDGAETLCLEDIYTENVLEVWADVGMAGPPQKSPATLGLEELFSTPGHLNDDADTVLVVGEAGSGKSTLLQRLHLLWAAGQDFQEFLFVFPFSCRQLQCMAKPLSVRTLLFEHCCWPDVGQEDIFQLLLDHPDRVLLTFDGFDEFKFRFTDRERHCSPTDPTSVQTLLFNLLQGNLLKNARKVVTSRPAAVSAFLRKYIRTEFNLKGFSEQGIELYLRKRHHEPGVADRLIRLLQETSALHGLCHLPVFSWMVSKCHQELLLQEGGSPKTTTDMYLLILQHFLLHATPPDSASQGLGPSLLRGRLPTLLHLGRLALWGLGMCCYVFSAQQLQAAQVSPDDISLGFLVRAKGVVPGSTAPLEFLHITFQCFFAAFYLALSADVPPALLRHLFNCGRPGNSPMARLLPTMCIQASEGKDSSVAALLQKAEPHNLQITAAFLAGLLSREHWGLLAECQTSEKALLRHQACARWCLARSLRKHFHSIPPAAPGEAKSVHAMPGFIWLIR | binds
